Target: Celsr3 (UniProt Q91ZI0)
Assay: co-immunoprecipitation, both in same cell
Settings: reference: Fzd3 wild type; sites T598

Frizzled3 (Fzd3) (from UniProt Q61086) Fzd3 T598A
binding against the reference: weaker
